Consider 77 sequences from the supplement of paper PMC7877785.

The data set is described as follows: self-splicing fitness, log relative to wild type (ln ratio); higher = more splicing; Tetrahymena group I intron in knt gene, E. coli kanamycin selection, DiMSum; sequences stand for … in CUCUCU…GGAGGGAAAAGUUAUCAGGCAUGCACCUGGUAGCUAGUCUUUAAACCAAUAGAUUGCAUCGGUUUAAAAGGCAAGACCGUCAAAUUGCGGGAAAGGGGUCAACAGCCGUUCAGUACCAAGUCUCAGGGGAAACUUUGAGAUGGCCUUGCAAAGGGUAUGGUAAUAAGCUGACGGACAUGGUCCUAACCACGCAGCCAAGUCCUAAGUCAACAGAUCUUCUGUUGAUAUGGAUGCAGUUCACAGACUAAAUGUCGGUCGGGGAAGAUGUAUUCUUCUCAUAAGAUAUAGUCGGACCUCUCCUUAAUGGGAGCUAGCGGAUGAAGUGAUGCAACACUGGAGCCGCUGGGAACUAAUUUGUAUGCGAAAGUAUAUUGAUUAGUUUUGGAGUACUCGUGGUCG
An outline of the steps:
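DiMSum derived fitness as the error-weighted combination of fold changes across replicates, kanamycin versus no kanamycin, normalised to wild type. E. coli BL21(DE3) held the library, which randomised all eight P1ex-region intron nucleotides within the knt kanamycin-resistance gene on pET-22b(+). Six replicate transformations grew overnight at 37°C or 30°C on LB agar with or without 25 μg/mL kanamycin, also containing 100 μg/mL carbenicillin, 50 μM IPTG and 0.2% rhamnose, and pooled colonies were amplicon-sequenced on an Illumina HiSeq 2500.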

± gives the uncertainty stated by the source.

As for GGAUAGCAAUAUUACGUCCA, the “self-splicing fitness (ln)” value (30 °C) was -1.4 ± 0.17 and the “self-splicing fitness (ln)” value (37 °C) was -0.317 ± 0.19.
The corresponding values for AUGAAGCAAUAUUACGGCGG are -0.365 ± 0.083 and 0.476 ± 0.11.
In the same order, the values of CUACAGCAAUAUUACGUUAA are -3.48 ± 0.21 and -2.94 ± 0.2.
In the same order, the values of AUACAGCAAUAUUACGCAUG are -1.44 ± 0.094 and -0.421 ± 0.12.
As for GGUUAGCAAUAUUACGGCUC, the “self-splicing fitness (ln)” value (30 °C) was -2.05 ± 0.33 and the “self-splicing fitness (ln)” value (37 °C) is -0.541 ± 0.46.
In the same order, the values of AAGCAGCAAUAUUACGUGGG are -3.54 ± 0.13 and -1.36 ± 0.084.
In the case of ACGAAGCAAUAUUACGAACG, the “self-splicing fitness (ln)” value was -1.3 ± 0.091 (30 °C) and -0.288 ± 0.11 (37 °C).
With GACCAGCAAUAUUACGGAAC, the “self-splicing fitness (ln)” value is -0.88 ± 0.098 (30 °C) and -0.504 ± 0.11 (37 °C).
Turning to GGAGAGCAAUAUUACGCUUA, the “self-splicing fitness (ln)” value by setting is: (30 °C) -2.12 ± 0.14; (37 °C) -0.41 ± 0.14.
In the same order, the values of GCUCAGCAAUAUUACGAGAG are -1.03 ± 0.14 and -0.875 ± 0.14.
For the sequence GACAAGCAAUAUUACGUAUU, the “self-splicing fitness (ln)” value (30 °C) is -2.83 ± 0.1 and the “self-splicing fitness (ln)” value (37 °C) is -1.66 ± 0.11.
In the same order, the values of GGCAAGCAAUAUUACGGACU are 0.0032 ± 0.071 and 0.777 ± 0.096.
Regarding ACAAAGCAAUAUUACGUAUU, the “self-splicing fitness (ln)” value by setting is: (30 °C) -1.94 ± 0.086; (37 °C) -1.18 ± 0.11.
The corresponding values for ACGAAGCAAUAUUACGCCCU are -0.468 ± 0.1 and 0.19 ± 0.12.
In the case of GAACAGCAAUAUUACGGUUA, the “self-splicing fitness (ln)” value by setting is: (30 °C) -0.16 ± 0.059; (37 °C) -0.275 ± 0.064.
The corresponding values for CUCCAGCAAUAUUACGAUAG are -1.6 ± 0.079 and -0.825 ± 0.1.
The corresponding values for AGGGAGCAAUAUUACGUGAG are -3.15 ± 0.26 and -2.56 ± 0.24.
As to UAACAGCAAUAUUACGGACA, the “self-splicing fitness (ln)” value reads like this: (30 °C) -0.353 ± 0.085; (37 °C) -0.527 ± 0.1.
For UGAGAGCAAUAUUACGAAUA, where the note is “30 °C”, the “self-splicing fitness (ln)” value was -2.76 ± 0.49.
As for UUAGAGCAAUAUUACGGUUA, the “self-splicing fitness (ln)” value by setting is: (30 °C) -0.618 ± 0.15; (37 °C) -1.17 ± 0.23.
In the same order, the values of CCCUAGCAAUAUUACGCCUG are -3.64 ± 0.23 and -3.11 ± 0.23.
For GCGUAGCAAUAUUACGGUCA, the “self-splicing fitness (ln)” value was -0.597 ± 0.081 (30 °C) and -0.142 ± 0.083 (37 °C).
In the same order, the values of AUCAAGCAAUAUUACGACAU are 0.105 ± 0.011 and 0.377 ± 0.032.
Regarding GGGGAGCAAUAUUACGAAGG, the “self-splicing fitness (ln)” value (30 °C) is -2.62 ± 0.41 and the “self-splicing fitness (ln)” value (37 °C) was -1.44 ± 0.39.
The corresponding values for ACACAGCAAUAUUACGGUGG are -2.44 ± 0.08 and -1.67 ± 0.099.
The corresponding values for CUACAGCAAUAUUACGUUGG are -3.51 ± 0.15 and -2.45 ± 0.14.
In the same order, the values of ACCAAGCAAUAUUACGACGA are -1.11 ± 0.12 and -0.623 ± 0.13.
Turning to CUUGAGCAAUAUUACGGCCA, the “self-splicing fitness (ln)” value runs as follows: (30 °C) -1.69 ± 0.23; (37 °C) -2.78 ± 0.36.
For the sequence ACCAAGCAAUAUUACGGGGU, the “self-splicing fitness (ln)” value is -3.66 ± 0.14 (30 °C) and -3.5 ± 0.19 (37 °C).
In the same order, the values of AUCGAGCAAUAUUACGGACA are -1.98 ± 0.38 and -1.41 ± 0.42.
Consider CGAGAGCAAUAUUACGGAUG, for which the “self-splicing fitness (ln)” value runs as follows: (30 °C) -3.42 ± 0.33; (37 °C) -1.83 ± 0.28.
With GAAUAGCAAUAUUACGAGAA, the “self-splicing fitness (ln)” value was -2.39 ± 0.46 (30 °C) and -1.6 ± 0.38 (37 °C).
The corresponding values for AUGUAGCAAUAUUACGUCGA are -3.98 ± 0.26 and -2.06 ± 0.18.
The corresponding values for CGACAGCAAUAUUACGAAUU are -3.51 ± 0.19 and -2.04 ± 0.18.
Consider CUAUAGCAAUAUUACGAUAC, for which the “self-splicing fitness (ln)” value (37 °C) was -2.61 ± 0.33.
Turning to AGAUAGCAAUAUUACGAGUC, the “self-splicing fitness (ln)” value was -2.64 ± 0.18 (30 °C) and -2.14 ± 0.21 (37 °C).
The corresponding values for CCGUAGCAAUAUUACGCCUG are -0.012 ± 0.085 and -0.0205 ± 0.084.
In the same order, the values of CACGAGCAAUAUUACGAGGG are -3.64 ± 0.25 and -3.25 ± 0.33.
CGCAAGCAAUAUUACGAUUA: the “self-splicing fitness (ln)” value is -2.6 ± 0.17 (30 °C) and -1.29 ± 0.15 (37 °C).
As for GUCCAGCAAUAUUACGAGCU, the “self-splicing fitness (ln)” value (37 °C) is -1.96 ± 0.31.
On to GUAAAGCAAUAUUACGGCUG, for which the “self-splicing fitness (ln)” value is, setting by setting: (30 °C) 0.0741 ± 0.066; (37 °C) 0.175 ± 0.088.
The corresponding values for GCAAAGCAAUAUUACGCGCC are -2.2 ± 0.26 and -2.09 ± 0.36.
With ACCGAGCAAUAUUACGCAGA, the “self-splicing fitness (ln)” value is, setting by setting: (30 °C) -2.2 ± 0.19; (37 °C) -2.51 ± 0.23.
In the same order, the values of CACCAGCAAUAUUACGAGUA are -1.04 ± 0.06 and -0.515 ± 0.066.
In the same order, the values of GUUCAGCAAUAUUACGUUUC are -0.965 ± 0.07 and -0.339 ± 0.084.
In the same order, the values of CUAUAGCAAUAUUACGGGGA are -2.58 ± 0.17 and -2.87 ± 0.31.
As for UUAAAGCAAUAUUACGGAGC, the “self-splicing fitness (ln)” value (30 °C) is -3.99 ± 0.28 and the “self-splicing fitness (ln)” value (37 °C) is -0.662 ± 0.23.
Consider GGCCAGCAAUAUUACGAAUC, for which the “self-splicing fitness (ln)” value runs as follows: (30 °C) -0.266 ± 0.11; (37 °C) 0.822 ± 0.14.
In the same order, the values of AUCGAGCAAUAUUACGGGAC are -2.89 ± 0.27 and -1.11 ± 0.19.
Take CCUAAGCAAUAUUACGGACC: the “self-splicing fitness (ln)” value (30 °C) was -3.02 ± 0.49.
Take AUCUAGCAAUAUUACGUGCA: the “self-splicing fitness (ln)” value by setting is: (30 °C) -0.394 ± 0.15; (37 °C) -0.423 ± 0.18.
In the same order, the values of ACGCAGCAAUAUUACGGACC are -1.95 ± 0.15 and 0.559 ± 0.18.
In the same order, the values of UACUAGCAAUAUUACGUGUA are -3.12 ± 0.28 and -0.943 ± 0.14.
The corresponding values for UAUCAGCAAUAUUACGUUUC are -2.67 ± 0.21 and -1.73 ± 0.22.
GUUGAGCAAUAUUACGUUCA: the “self-splicing fitness (ln)” value by setting is: (30 °C) -2.3 ± 0.5; (37 °C) -1.52 ± 0.25.
The corresponding values for UUUAAGCAAUAUUACGUAUA are -1.95 ± 0.12 and -1.54 ± 0.14.
The corresponding values for CACUAGCAAUAUUACGUAAC are -3.68 ± 0.27 and -1.88 ± 0.24.
In the same order, the values of AGUGAGCAAUAUUACGUUCG are -3.26 ± 0.16 and -2.22 ± 0.14.
Turning to AUUAAGCAAUAUUACGCAGC, the “self-splicing fitness (ln)” value by setting is: (30 °C) -3.06 ± 0.22; (37 °C) -2.72 ± 0.39.
Take GCGAAGCAAUAUUACGGCUC: the “self-splicing fitness (ln)” value runs as follows: (30 °C) -1.78 ± 0.17; (37 °C) -2.01 ± 0.25.
In the same order, the values of GGGCAGCAAUAUUACGAAUU are -0.318 ± 0.12 and -0.166 ± 0.17.
As for CUCUAGCAAUAUUACGUACG, the “self-splicing fitness (ln)” value (30 °C) is -2.5 ± 0.23 and the “self-splicing fitness (ln)” value (37 °C) was -1.4 ± 0.17.
In the same order, the values of AAAUAGCAAUAUUACGGGUG are -1.49 ± 0.11 and -1.65 ± 0.14.
As to GAGUAGCAAUAUUACGCAUU, the “self-splicing fitness (ln)” value (30 °C) was -3.07 ± 0.13 and the “self-splicing fitness (ln)” value (37 °C) is -2.07 ± 0.12.
In the same order, the values of AGUGAGCAAUAUUACGUGGA are -2.63 ± 0.32 and -1.49 ± 0.28.
The corresponding values for AAAUAGCAAUAUUACGUGGC are -4.1 ± 0.28 and -1.43 ± 0.2.
In the same order, the values of UAUGAGCAAUAUUACGCAAC are -2.22 ± 0.32 and -2.49 ± 0.44.
As for GUACAGCAAUAUUACGUACA, the “self-splicing fitness (ln)” value by setting is: (30 °C) -3 ± 0.15; (37 °C) -1.63 ± 0.098.
Take UAUGAGCAAUAUUACGUAAG: the “self-splicing fitness (ln)” value (37 °C) was -2.16 ± 0.19.
With CCGCAGCAAUAUUACGACGC, the “self-splicing fitness (ln)” value runs as follows: (30 °C) -3.71 ± 0.35; (37 °C) -2.74 ± 0.27.
The corresponding values for CCAGAGCAAUAUUACGCCCG are -2.01 ± 0.26 and -1.17 ± 0.37.
The corresponding values for CUUUAGCAAUAUUACGGGUU are -3.22 ± 0.34 and -0.807 ± 0.19.
The corresponding values for AUCUAGCAAUAUUACGGUGA are -1.75 ± 0.11 and -0.608 ± 0.13.
As to GAGAAGCAAUAUUACGAAGA, the “self-splicing fitness (ln)” value (30 °C) was -1.43 ± 0.28 and the “self-splicing fitness (ln)” value (37 °C) is -1.67 ± 0.26.
In the same order, the values of UACCAGCAAUAUUACGCAAG are -2.3 ± 0.13 and -0.829 ± 0.13.
As for CCGGAGCAAUAUUACGGCGC, the “self-splicing fitness (ln)” value (37 °C) was -0.565 ± 0.49.
As for UCGCAGCAAUAUUACGUGUC, the “self-splicing fitness (ln)” value (30 °C) was -3.83 ± 0.2 and the “self-splicing fitness (ln)” value (37 °C) is -2.28 ± 0.17.
